# From paper PMC9133466
# Where no end group is shown, it is not given here. [ ]: non-standard residue; d: D form.
# Key:
# [1] = target: amyloid beta (Aβ) of human brain homogenate (human (endogenous in human brain))
# [2] = target: amyloid beta (Aβ) of APP/PS1 mouse brain homogenate (human)
# [3] = target: amyloid beta (Aβ) of human brain homogenate (human (endogenous in human brain)); remark: listed apart in the source
# [4] = target: amyloid beta (Aβ) of human brain homogenate (human (endogenous in human brain)); remark: listed apart in the source
binder,measurement,setting,value
[dP][dT][dL][dH][dT][dH][dN][dR][dR][dR][dR][dR]-NH2 (N-terminus assumed; SMILES CC(C)C[C@@H](NC(=O)[C@H](NC(=O)[C@H]1CCCN1)[C@H](C)O)C(=O)N[C@H](Cc1c[nH]cn1)C(=O)N[C@@H](C(=O)N[C@H](Cc1c[nH]cn1)C(=O)N[C@H](CC(N)=O)C(=O)N[C@H](CCCNC(=N)N)C(=O)N[C@H](CCCNC(=N)N)C(=O)N[C@H](CCCNC(=N)N)C(=O)N[C@H](CCCNC(=N)N)C(=O)N[C@H](CCCNC(=N)N)C(N)=O)[C@H](C)O) [RD2],"reduction of Aβ oligomer concentration (Aβ with Aβ) by sFIDA; human AD brain homogenate AD2 diluted 1:10, 0.31-20 μM RD2, 24 h",[1],93%
same,"reduction of Aβ oligomer concentration (Aβ with Aβ) by sFIDA; human AD brain homogenate AD2 diluted 1:20, 0.31-20 μM RD2, 24 h",[1],95%
same,"reduction of Aβ oligomer concentration (Aβ with Aβ) by sFIDA; human AD brain homogenate AD2 diluted 1:40, 0.31-20 μM RD2, 24 h",[1],96%
same,"reduction of Aβ oligomer concentration (Aβ with Aβ) by sFIDA; DGC fraction 10 of APP/PS1 mouse brain homogenate diluted 1:2, 0-50 μM RD2, 0 min to 20 h, 4 °C",[2],81%
same,"decrease of Aβ oligomer concentration (Aβ with Aβ) by sFIDA; human AD brain homogenate AD2 diluted 1:20, 1.25-20 μM RD2, 0 to 1,365 min",[3],93%
same,"decrease of Aβ oligomer concentration (Aβ with Aβ) by sFIDA; human AD brain homogenate AD4 diluted 1:20, 1.25-20 μM RD2, 0 to about 23 h",[3],91%
same,"decrease of Aβ oligomer concentration (Aβ with Aβ) by sFIDA; human AD brain homogenate AD5 diluted 1:20, 1.25-20 μM RD2, 0 to about 23 h",[3],89%
same,"decrease of Aβ oligomer concentration (Aβ with Aβ) by sFIDA; human AD brain homogenate AD6 diluted 1:20, 1.25-20 μM RD2, 0 to 1,425 min",[3],90%
same,"reaction rate constant k (1,fast) of Aβ oligomer elimination by RD2 (global double exponential fit, effective RD2 1 and 16 μM); homogenate AD2 (L∗mol^−1∗min^−1)",[3],2330
same,"reaction rate constant k (1,fast) of Aβ oligomer elimination by RD2 (global double exponential fit, effective RD2 1 and 16 μM); homogenate AD4 (L∗mol^−1∗min^−1)",[3],2930
same,"reaction rate constant k (1,fast) of Aβ oligomer elimination by RD2 (global double exponential fit, effective RD2 1 and 16 μM); homogenate AD5 (L∗mol^−1∗min^−1)",[3],2370
same,"reaction rate constant k (1,fast) of Aβ oligomer elimination by RD2 (global double exponential fit, effective RD2 1 and 16 μM); homogenate AD6 (L∗mol^−1∗min^−1)",[3],1280
same,"reaction rate constant k (1,slow) of Aβ oligomer elimination by RD2 (global double exponential fit, effective RD2 1 and 16 μM); homogenate AD2 (L∗mol^−1∗min^−1)",[3],76
same,"reaction rate constant k (1,slow) of Aβ oligomer elimination by RD2 (global double exponential fit, effective RD2 1 and 16 μM); homogenate AD4 (L∗mol^−1∗min^−1)",[3],37
same,"reaction rate constant k (1,slow) of Aβ oligomer elimination by RD2 (global double exponential fit, effective RD2 1 and 16 μM); homogenate AD5 (L∗mol^−1∗min^−1)",[3],50
same,"reaction rate constant k (1,slow) of Aβ oligomer elimination by RD2 (global double exponential fit, effective RD2 1 and 16 μM); homogenate AD6 (L∗mol^−1∗min^−1)",[3],48
same,"reduction of Aβ oligomer concentration (Aβ with Aβ) by sFIDA; DGC fraction 10 of human AD brain homogenate AD2 diluted 1:10, 5 and 20 μM RD2, 0 to 1,380 min",[4],92%
same,"reduction of Aβ oligomer concentration (Aβ with Aβ) by sFIDA; DGC fraction 10 of human AD brain homogenate AD6 diluted 1:10, 5 and 20 μM RD2, 0 to 1,380 min",[4],88%
same,"reduction of Aβ oligomer concentration (Aβ with Aβ) by sFIDA; pooled DGC fractions 4 to 6 of human AD brain homogenate AD2, 20 μM RD2, 1,380 min",[4],64%
same,"reduction of Aβ oligomer concentration (Aβ with Aβ) by sFIDA; pooled DGC fractions 4 to 6 of human AD brain homogenate AD6, 20 μM RD2, 1,380 min",[4],62%
[dQ][dS][dH][dY][dR][dH][dI][dS][dP][dA][dQ][dV]-NH2 (N-terminus assumed; SMILES CC[C@@H](C)[C@@H](NC(=O)[C@@H](Cc1c[nH]cn1)NC(=O)[C@@H](CCCNC(=N)N)NC(=O)[C@@H](Cc1ccc(O)cc1)NC(=O)[C@@H](Cc1c[nH]cn1)NC(=O)[C@@H](CO)NC(=O)[C@H](N)CCC(N)=O)C(=O)N[C@H](CO)C(=O)N1CCC[C@@H]1C(=O)N[C@H](C)C(=O)N[C@H](CCC(N)=O)C(=O)N[C@@H](C(N)=O)C(C)C) [D1],"reduction of Aβ oligomer signal by sFIDA; human AD brain homogenate AD2 diluted 1:40 (similar at 1:10 and 1:20), 0.31-20 μM D1, 24 h",[1],27%
